Here are results for two substances from paper PMC3091952.

Common to all, as to assay: pull-down
In test [1] the target is PAD4 R419Q, labelled with BFA (human) (UniProt Q9UM07).
The target of test [2] is PAD4 R123Q, labelled with BFA (human) (UniProt Q9UM07).
In test [3] the target is PAD4 R484Q, labelled with BFA (human) (UniProt Q9UM07).
In test [4] the target is PAD4 R609Q, labelled with BFA (human) (UniProt Q9UM07).
For test [5], the target named is PAD4 R639Q, labelled with BFA (human) (UniProt Q9UM07).

“Histone Deacetylase 1 (HDAC1) (from UniProt Q13547 1-482) (enzyme)”: the fold decrease of affinity against wild type PAD4 in test [1] was 1.4 fold; in test [2] it was 3.3 fold; in test [3], 1.4 fold.
For the substance “Protein Arginine Methyltransferase 1 (PRMT1) (from UniProt Q99873 1-371) (enzyme)”, the fold reduction of affinity against wild type PAD4 in test [2] was 2 fold; in test [3] it was 10 fold; in test [4], 3.3 fold; in test [5] it was 5 fold.
